IntAct's records for PubMed 18552200

B1: DDB1- and CUL4-associated factor homolog 1 (Arabidopsis thaliana (Mouse-ear cress)), Q9M086 (parent)
chain: MDGQEHAEVPNSMVEDDQSVVAAEAIAELANSTGEPNPEEGEEQSVEDELIAKAQKLMEDITSVANNPNPNILHALSQLLESQESLFLEENGHFSNARGSHNSGKLCILIRENDEFFELISSTFLSENSYSTAVKAASARLLMNCSLTWMYPHVFDDAVTENFKNWVMEEAVKFPGEDSAKKEASDFEMLKTYSTGLLALSLASRGQIVEDVLTSGLSAKLMHYLRVRVLKEPSTSRIHTTETKHVSLKTKEEGRSRVRKIVDTVEGDHVLETDSGREMGQTDVQPDGEFEIDGRDVFNVSGVVDCKIKPGDDNSVRDDPSRHRLNRSKSRGRGRVHEGAPDTEVLLASPRLGRLLVRDRDLSKISDGRNAEDVTVCLGKMKSGIMEIEREDNDECFQGCIIGTKNITDLVKRAVGAAETEARAAHAPDDAAKAAGDAAAELVKTAALEEFKSSGSEEAAVSAATRAAITVIDAAEVSRNPTCVTSDQTTDVSEVSLPDIESLAQLQEKYCIQCLEILGEYVEVLGPVLHEKGVDVCIVLLERTSQLDDRSTVSPLLPDVMKLICALAAHRKFAAMFVERRGILKLLAVPRVSETFYGLSSCLYTIGSLQGIMERVCALPLVVIHQVVKLAIELLDCSQDQARKNSALFFAAAFVFRAILDAFDAQDSLQKLLAILKDAASVRTGANTDRSAPEVMTSSEKQMAFHTCFALRQYFRAHLLLLVDSIRPSRISRGGVPSSMKPNIRAAYKPLDISNEAVDAIFLQLQKDRRLGPTFVKAQWPAVNNFLASSGHVTMLELCQTPPVDRYLHDLLQYAFGVLHIVTSIPDGRKAIAHATLSNNRAGIAVILDAANISNSIVDPEIIQPALNVLINLVCPPPSLSNKPPLAQNHQPVPGQATTRPSTDVAVGTQSTGNAPQTPVAPASSGLVGDRRIFLGAGTGSAGLAAKLEQVYRQAREAVRGNDGIKILLKLLQPRIYVNPPATPDCLRALACRVLLGLARDDTIAQILTKLEVGKSLSELIRDSGGQSSGTDQGRWQAELAQVALELIGIVTNSGHATTLTASDAATPTLRRIERAAIAAATPITYDSKELLLLIHEHLQASGLGDTASALLKEAQLTPLPSSASPSSIAYSTTQEMSTPLAQEQWPSGRANSGFFTSKPKVCAHDEDPNSRSNAALSAKKKHLASSTLEMPTPVAQQQWPSGRANCGFCPSIPKINARDEDPSSRGNAAPSAKKKQLTFSPSFSSQSRKQSFSHDALPQSTQRINCCSNSDPALADTSETAAELVLKNDLDADAQFKTPISFPRKRKLSELRDSSVPGKRIDLGERRNSTFADGSGLQTPASALDANQSGSSRLGQMTPASQLRLPSDPQPSNPERLSLDSLVVQYLKHQHRQCLAPITTLPPVSLLHPHVCPEPKRLLEAPLNMTGRLGTRELQSFYSGVHGNRRDRQFVFSRFKSWRSFRDETALFTCIALLGGTNHIAVGSHAGEIKIFEASSGSMLESVSGHQAPVTLVQPYVSRDTQLLLSSSSSDVQLWDASSITGGPRHSFDGCKAAKFSNSGLQFAALSCEASRKDVLLYDVQTCSPCQKLTDTVTSSRSNPYSLVHFSPCDTLILWNGVLWDRRIPEKVRRFDQFTDYGGGGFHPSRNEVIINSEIWDMRTFKLLRSVPSLDQTAITFNSRGDVIYAMLRRNIEDVMSAVHTRRVKHPLFAAFRTLDAINYSDIATIPVDRCLLDFATEPTDSFLGLITMEDQEDMFSSARMYEIGRRRPTDDDSDPDDDDETEDEDEDDEEEDDLDRILGLAGDNSDSGDDDLSSEDNEDSVSDFDEEADILIDGDFMEELIEGENEDDGNGEDEDDDDDGEMQDFMSSGEEDDYRDNIRSS
partner: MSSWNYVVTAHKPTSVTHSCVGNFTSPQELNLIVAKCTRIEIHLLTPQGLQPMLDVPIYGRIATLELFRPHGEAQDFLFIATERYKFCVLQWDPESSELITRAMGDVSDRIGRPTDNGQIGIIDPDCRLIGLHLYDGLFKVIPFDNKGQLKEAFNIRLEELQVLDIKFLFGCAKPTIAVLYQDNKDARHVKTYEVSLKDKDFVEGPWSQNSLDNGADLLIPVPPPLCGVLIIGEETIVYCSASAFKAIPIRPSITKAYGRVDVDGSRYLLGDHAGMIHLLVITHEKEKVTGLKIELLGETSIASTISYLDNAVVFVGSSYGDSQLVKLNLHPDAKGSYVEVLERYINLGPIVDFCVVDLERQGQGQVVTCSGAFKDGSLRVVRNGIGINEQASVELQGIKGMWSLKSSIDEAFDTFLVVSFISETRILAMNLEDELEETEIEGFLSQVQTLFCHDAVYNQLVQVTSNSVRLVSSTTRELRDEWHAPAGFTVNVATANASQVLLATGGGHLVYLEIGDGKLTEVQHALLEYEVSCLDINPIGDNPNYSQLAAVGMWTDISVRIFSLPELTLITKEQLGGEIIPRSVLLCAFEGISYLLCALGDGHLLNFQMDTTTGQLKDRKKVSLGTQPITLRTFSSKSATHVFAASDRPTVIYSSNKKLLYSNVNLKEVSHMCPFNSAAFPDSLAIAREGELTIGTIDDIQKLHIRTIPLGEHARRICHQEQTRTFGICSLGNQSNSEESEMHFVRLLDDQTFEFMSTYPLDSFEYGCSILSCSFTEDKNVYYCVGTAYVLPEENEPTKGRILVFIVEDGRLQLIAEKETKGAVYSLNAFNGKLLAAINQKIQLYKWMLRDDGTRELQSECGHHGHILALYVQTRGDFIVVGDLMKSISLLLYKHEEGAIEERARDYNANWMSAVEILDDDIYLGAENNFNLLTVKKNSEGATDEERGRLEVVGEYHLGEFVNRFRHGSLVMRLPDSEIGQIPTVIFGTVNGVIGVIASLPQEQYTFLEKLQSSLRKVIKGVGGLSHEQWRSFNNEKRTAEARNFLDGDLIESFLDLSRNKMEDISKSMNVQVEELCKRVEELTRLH

Variants of: B1
Conditions: with ddb1a_arath DDB1A

Effect of a mutation on the interaction, decreasing interaction:
D1622A;R1624A;D1658A;R1660A
D1622A;R1624A
D1658A;R1660A
